Source: IntAct's records for PubMed 24910198

B1: TIMELESS-interacting protein (Homo sapiens), Q9BVW5 (parent)
chain: MLEPQENGVIDLPDYEHVEDETFPPFPPPASPERQDGEGTEPDEESGNGAPVRVPPKRTVKRNIPKLDAQRLISERGLPALRHVFDKAKFKGKGHEAEDLKMLIRHMEHWAHRLFPKLQFEDFIDRVEYLGSKKEVQTCLKRIRLDLPILHEDFVSNNDEVAENNEHDVTSTELDPFLTNLSESEMFASELSRSLTEEQQQRIERNKQLALERRQAKLLSNSQTLGNDMLMNTPRAHTVEEVNTDEDQKEESNGLNEDILDNPCNDAIANTLNEEETLLDQSFKNVQQQLDATSRNITEAR
B2: SWI/SNF-related matrix-associated actin-dependent regulator of chromatin subfamily A-like protein 1 (Homo sapiens), Q9NZC9 (parent)
chain: MSLPLTEEQRKKIEENRQKALARRAEKLLAEQHQRTSSGTSIAGNPFQAKQGPSQNFPRESCKPVSHGVIFKQQNLSSSSNADQRPHDSHSFQAKGIWKKPEEMPTACPGHSPRSQMALTGISPPLAQSPPEVPKQQLLSYELGQGHAQASPEIRFTPFANPTHKPLAKPKSSQETPAHSSGQPPRDAKLEAKTAKASPSGQNISYIHSSSESVTPRTEGRLQQKSGSSVQKGVNSQKGKCVRNGDRFQVLIGYNAELIAVFKTLPSKNYDPDTKTWNFSMNDYSALMKAAQSLPTVNLQPLEWAYGSSESPSTSSEGQAGLPSAPSLSFVKGRCMLISRAYFEADISYSQDLIALFKQMDSRRYDVKTRKWSFLLEEHSKLIAKVRCLPQVQLDPLPTTLTLAFASQLKKTSLSLTPDVPEADLSEVDPKLVSNLMPFQRAGVNFAIAKGGRLLLADDMGLGKTIQAICIAAFYRKEWPLLVVVPSSVRFTWEQAFLRWLPSLSPDCINVVVTGKDRLTAGLINIVSFDLLSKLEKQLKTPFKVVIIDESHFLKNSRTARCRAAMPVLKVAKRVILLSGTPAMSRPAELYTQIIAVKPTFFPQFHAFGLRYCDAKRMPWGWDYSGSSNLGELKLLLEEAVMLRRLKSDVLSQLPAKQRKIVVIAPGRINARTRAALDAAAKEMTTKDKTKQQQKDALILFFNRTAEAKIPSVIEYILDLLESGREKFLVFAHHKVVLDAITQELERKHVQHIRIDGSTSSAEREDLCQQFQLSERHAVAVLSITAANMGLTFSSADLVVFAELFWNPGVLIQAEDRVHRIGQTSSVGIHYLVAKGTADDYLWPLIQEKIKVLAEAGLSETNFSEMTESTDYLYKDPKQQKIYDLFQKSFEKEGSDMELLEAAESFDPGSASGTSGSSSQNMGDTLDESSLTASPQKKRRFEFFDNWDSFTSPL

Variants of: B1
Details: with rfa2_human RPA2, P15927
Target sequence in this assay (P15927 whole entry): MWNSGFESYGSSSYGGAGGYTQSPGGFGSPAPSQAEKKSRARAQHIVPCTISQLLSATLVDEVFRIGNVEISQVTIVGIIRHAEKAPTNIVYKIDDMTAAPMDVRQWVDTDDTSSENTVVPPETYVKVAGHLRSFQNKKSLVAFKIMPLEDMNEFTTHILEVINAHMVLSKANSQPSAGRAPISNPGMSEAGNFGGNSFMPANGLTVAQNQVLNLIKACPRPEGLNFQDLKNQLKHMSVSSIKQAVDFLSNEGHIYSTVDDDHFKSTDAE

effect of a mutation on the interaction	Variant
decreasing interaction	MLEPQENGVIDLPDYEHVEDETFPPFPPPASPERQDGEGTEPDEESGNGAPVRVPPKRTVKRNIPKLDAQRLISERGLPALRHVFDKAKFKGKGHEAEDLKMLIRHMEHWAHRLFPKLQFEDFIDRVEYLGSKKEVQTCLKRIRLDLPILHEDFVSNNDEVAENNEHDVTSTELDPFLTNLSESEMFASELSRSATEEQQQRIERNKQLALERRQAKLLSNSQTLGNDMLMNTPRAHTVEEVNTDEDQKEESNGLNEDILDNPCNDAIANTLNEEETLLDQSFKNVQQQLDATSRNITEAR [L195A]

Variants of: B2
Details: with rfa2_human RPA2, P15927
Target sequence in this assay (P15927 whole entry): as the sequence (P15927 whole entry) above

effect of a mutation on the interaction	Variant
decreasing interaction	K12A;I13A

Variants of: B2
Details: with rfa2_human RPA2, P15927
Remark: another data set of the same source
Target sequence in this assay (P15927 whole entry): as the sequence (P15927 whole entry) above

effect of a mutation on the interaction	Variant
decreasing interaction	L5A

Variants of: B2
Details: with rfa2_human RPA2, P15927
Remark: another data set of the same source
Target sequence in this assay (P15927 whole entry): as the sequence (P15927 whole entry) above

effect of a mutation on the interaction	Variant
decreasing interaction	K27A

Variants of: B2
Details: with rfa2_human RPA2, P15927
Remark: another data set of the same source
Target sequence in this assay (P15927 whole entry): as the sequence (P15927 whole entry) above

effect of a mutation on the interaction	Variant
decreasing interaction	R17A;Q18A;K19A

Variants of: B2
Details: with rfa2_human RPA2, P15927
Remark: another data set of the same source
Target sequence in this assay (P15927 whole entry): as the sequence (P15927 whole entry) above

effect of a mutation on the interaction	Variant
decreasing interaction	Q9A

Variants of: B2
Details: with rfa2_human RPA2, P15927
Remark: another data set of the same source

effect of a mutation on the interaction	Variant
decreasing interaction	A20S;L21S

Variants of: B2
Details: with rfa2_human RPA2, P15927
Remark: another data set of the same source

effect of a mutation on the interaction	Variant
decreasing interaction	N16A;R17A
